The source of these data is paper PMC2891263 (Biochemistry, 2010).

The target of data set [1] is rhodamine-labeled MetJ (MetJ-A1C-rhodamine) (E. coli) (UniProt P0A8U6). Put plainly: AUC.
The data set “AUC” deals with the molecule itself. Kind of data set: AUC.

For “rhodamine-labeled MetJ (MetJ-A1C-rhodamine) (from UniProt P0A8U6 1-105) (natural protein)”, in data set [1], the stoichiometry N is 2.

B1: unlabeled MetJ (methionine repressor protein) (natural protein, E. coli, UniProt P0A8U6 1-105, looked up)
chain: MAEWSGEYISPYAEHGKKSEQVKKITVSIPLKVLKILTDERTRRQVNNLRHATNSELLCEAFLHAFTGQPLPDDADLRKERSDEIPEAAKEIMREMGINPETWEY
B1: the “stoichiometry N” value in “AUC” was found to be 2.
